From US20160201045A1, “Endo-xylanase and Coding Gene and Use Thereof” (SHANGHAI INSTITUTES FOR BIOLOGICAL SCIENCES CHINESE ACADEMY …, priority 2013, published 2016) come the findings set out here.

Common to all, as to assay type: biochemical
Data set [1] in a line: Residual activity under feed additive conditions (acidic pH, 37° C.). The note with it: pH 4-5, 37° C., 15-60 minutes. Here is the method: (§1) In a 100 μl reaction system, birch xylan was added to a final concentration of 1% (w/w), and Na2HPO4/NaH2PO4 buffer (pH7.0) was added to a final concentration of 100 mM. A suitable amount of enzyme solution diluted by the abovementioned buffer was added to the reaction system for reaction at 50[…] for 10 minutes. 100 μl DNS were added to stop the reaction. For the control, 100 μl DNS were firstly added to the above reaction system before adding the enzyme solution. The reaction mixtures were subjected to a boiled water bath for 5 minutes to develop color. Absorbance value at 540 nm was detected by a microplate reader. After subtracting the absorbance value of the control from that of the sample, the enzymatic activity unit (U) was calculated based on the standard curve.
As a feed additive, xylanase is required to retain its enzymatic activity in a pH environment of about 4 due to the acidic environment in the stomach of livestock, such as pig, and retain its enzymatic activity in a pH environment of about 6 due to the weak acidic environment in the digestive tract of chicken. Therefore, Xyl7 was tested for its residual enzymatic activity after treated in pH4 or pH5 at a 37° C. bath for 15, 30, 45 and 60 minutes. The residual enzymatic activity was a ratio between the specific activity of the enzyme obtained after various treatments and that of the un-treated enzyme.

The nature of data set [2]: Specific activity of the xylanase on beech xylan (DNS method). The note with it: pH7.0, 50° C., 10 minutes. Here is the method:
Enzymatic activity of the endo-1,4-β-xylanase was tested by a DNS method as follows:
10 g NaOH were weighed and dissolved in about 400 ml ddH2O. 10 g dinitrosalicylic acid, 2 g phenol, 0.5 g anhydrous sodium sulfite and 200 g potassium sodium tartrate tetrahydrate were weighed and dissolved in about 300 ml ddH2O. The two solutions were mixed, diluted to 1 liter and preserved in dark.
100 μl DNS were added into each of the above standard samples. The mixtures were subjected to boiled water bath for 5 minutes for developing color. Absorbance value at 540 nm was detected by a microplate reader. Standard sample 1 was a blank control. The absorbance value of the blank control was subtracted from that of each sample and then the standard curve was plotted.
In a 100 μl reaction system, birch xylan was added to a final concentration of 1% (w/w), and Na2HPO4/NaH2PO4 buffer (pH7.0) was added to a final concentration of 100 mM. A suitable amount of enzyme solution diluted by the abovementioned buffer was added to the reaction system for reaction at 50[…] for 10 minutes. 100 μl DNS were added to stop the reaction. […] Absorbance value at 540 nm was detected by a microplate reader. After subtracting the absorbance value of the control from that of the sample, the enzymatic activity unit (U) was calculated based on the standard curve. […]

Data set [3] is described as follows: Thermal stability test of purified mutant proteins at 55° C. and 60° C. Here is the method: Enzymatic activity was tested according to the above standard enzymatic activity detection steps (enzymatic activity was tested after reacting at pH7.0, 50° C. for 10 minutes). The enzyme solution which was not subjected to heat treatment was used as a control. Its specific activity tested under pH 7.0, 50° C. was used as a reference value and its relative activity was defined as 100%. The relative activity of the treatment group was a ratio between the relative activity value obtained after storing at different temperatures for different times (treatment conditions) and the reference value. […] After storing at these temperatures for 45 min, the enzymatic activity decreased to be less than 50% of the maximum activity.
Transformants were picked up by sterile toothpick to a LB liquid culture containing antibiotic and IPTG (in a final concentration of 1 mM) contained within the wells of a 96-well plate and cultured overnight at 37° C. and 200 rpm. Thallus was collected by centrifugation. 100 ul buffers having the optimum reaction pH were added to re-suspend the thallus. […] Enzymatic activity was detected according to the DNS method. […] Then the enzymatic activity was detected. The residual enzymatic activity of the treatment group was calculated as a percentage of the enzymatic activity of the treatment group in relative to that of the control group. […]

Data set [4] can be described thus: Detection on pH tolerance. The note with it: pH 6.5, 7.0 or 7.5, 50° C., 45 min; % of the highest activity. Here is the method: as §1
The enzyme solution was kept in buffers of different pH values (6.5, 7.0 and 7.5) or at pH 7.0 with addition of 70 mM mercaptoethanol at 50° C. for different times (15 min, 30 min, 45 min, 60 min, 75 min). Enzymatic activity was tested according to the above standard enzymatic activity detection steps (enzymatic activity was tested after reacting at pH7.0, 50° C. for 10 minutes). The specific activity value of Xyl7 obtained after storing at pH7.0, 50° C. for 0 minute and reacting at 50° C. for 10 minutes was used as a reference value, and its relative activity was defined as 100%. […]

Values joined by “and” are separate entries in the source; they are usually repeats but may differ in a detail not shown here. Equal entries are not always repeated. Some results are limits rather than exact numbers.

B1: Xyl7: endo-1,4-β-xylanase of 505 amino acids, SEQ ID NO:2, from termite gut metagenome, expressed in E. coli with His tag (protein)
chain: MKKLIALSFIAAFFAPLFAQGPTWTTSTIQAYNGYDYELWNQNNAGTVSMKLTGDNGSGASAVGGTFTATWSNTQNVLFRSGKKWGSSSNQNHTQIGNMSINFAATWSSTDNVKMLGVYGWAYFTSANVPTKQENGTNASFSNQIEYYIIQDRGSYNPASGGTNAKKYGSATIDGIAYDFYVCDRINQPMLTGNGNFKQFFSVPQSASAHRTSGTISVSQHFNKWHELGMKMDGPLYEVAMKVESYTGSGSSNGSATVTKNLLTIGGTTPTPSSNSGGTTSSSSRASSSSRASSSSNAAVQATTCKTPLITYPTSTVPSDPYTACFKYTDDKCYVCKVENEGEFEGNMNTCGSGWVWDGTQIDNNLRDGYWYQEVPCPAGSSSSRSSSSSVAVSSSSRSSSSSVAASSSSRSSSSSASVSSSSEETPIRVLHTIPSKFRVRSLNNGALQIESNADVVLYLYDTKGKMAQKIEAPTGSSIVKLSVPAGIYIVRNVQTKEKLRVMVR
modifications: His tag; Intestinal tract metagenome of termite
Take B1: the “residual enzymatic activity in acidic environment” value in data set [1] is “retain a sufficiently high enzymatic activity”. For the same molecule, the “Specific Activity on beech xylan” value was 6340 U/mg and 6340 ± 48 U/mg in data set [2]; “higher than 6340 U/mg” in data set [2] (listed as xylanase of the present disclosure). The “half life at 60° C.” value in data set [3] is given as “less than 10 minutes”. The “retained activity after storing in buffer” value in data set [4] is listed as not below 50%.
